Values quoted from earlier work as cited in US6552168B1, “Gamma-ketoacid tetrapeptides as inhibitors of caspase-3” (Merck Frosst Canada & Co., priority 1998, dated 2003).

Columns and labels:
caspase-1 = target: T1, caspase-1 (Homo sapiens, UniProt P29466)
T1 sequence (P29466 120-297 limits assumed): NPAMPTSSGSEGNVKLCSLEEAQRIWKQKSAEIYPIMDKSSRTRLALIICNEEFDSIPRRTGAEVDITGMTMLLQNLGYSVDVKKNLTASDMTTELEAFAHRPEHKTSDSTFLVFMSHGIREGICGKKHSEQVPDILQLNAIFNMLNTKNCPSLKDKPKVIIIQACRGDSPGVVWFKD
T1 sequence (P29466 317-404 limits assumed): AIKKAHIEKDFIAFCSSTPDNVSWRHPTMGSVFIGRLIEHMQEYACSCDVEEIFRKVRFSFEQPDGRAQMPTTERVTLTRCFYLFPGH

caspase-3 = target: T2, caspase-3 (Homo sapiens, UniProt P42574)
T2 sequence (P42574 29-175 limits assumed): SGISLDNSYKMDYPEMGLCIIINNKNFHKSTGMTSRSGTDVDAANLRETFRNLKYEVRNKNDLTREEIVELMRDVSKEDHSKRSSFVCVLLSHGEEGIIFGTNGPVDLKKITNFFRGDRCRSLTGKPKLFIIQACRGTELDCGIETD
T2 sequence (P42574 176-277 limits assumed): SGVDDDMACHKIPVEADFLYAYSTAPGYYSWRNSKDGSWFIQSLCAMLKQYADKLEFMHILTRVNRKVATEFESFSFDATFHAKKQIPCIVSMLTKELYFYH

## Ac-YVAD-CHO
caspase-1
  Ki: < 0.001 µM
caspase-1; slow-binding time-dependent inhibition
  kon caspase-1: 380000 M⁻¹ s⁻¹
caspase-3
  Ki: 12 µM
